Data from the supplement of paper PMC9876800.

Tested on: peptide library, one residue held at a place counted from the S/T acceptor
Test: relative phosphorylation of the sub-library (ratio to the mean residue at this position); higher = residue favoured
Settings: human
How it was run: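 Purified recombinant kinases (human or orthologue constructs) were incubated in 384-well plates with biotinylated degenerate peptide sub-libraries, each fixing one residue at one position around a central Ser/Thr. Peptides were at 50 μM, with 50 μM ATP spiked with γ-32P-ATP, for 90 min under kinase-specific conditions. Spots on streptavidin membranes were phosphorimaged and quantified by densitometry. Relative sub-library phosphorylation is a ratio to the mean residue at that position.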

Sequence of PLK4, construct: aa1-836 (O00444 1-836, looked up): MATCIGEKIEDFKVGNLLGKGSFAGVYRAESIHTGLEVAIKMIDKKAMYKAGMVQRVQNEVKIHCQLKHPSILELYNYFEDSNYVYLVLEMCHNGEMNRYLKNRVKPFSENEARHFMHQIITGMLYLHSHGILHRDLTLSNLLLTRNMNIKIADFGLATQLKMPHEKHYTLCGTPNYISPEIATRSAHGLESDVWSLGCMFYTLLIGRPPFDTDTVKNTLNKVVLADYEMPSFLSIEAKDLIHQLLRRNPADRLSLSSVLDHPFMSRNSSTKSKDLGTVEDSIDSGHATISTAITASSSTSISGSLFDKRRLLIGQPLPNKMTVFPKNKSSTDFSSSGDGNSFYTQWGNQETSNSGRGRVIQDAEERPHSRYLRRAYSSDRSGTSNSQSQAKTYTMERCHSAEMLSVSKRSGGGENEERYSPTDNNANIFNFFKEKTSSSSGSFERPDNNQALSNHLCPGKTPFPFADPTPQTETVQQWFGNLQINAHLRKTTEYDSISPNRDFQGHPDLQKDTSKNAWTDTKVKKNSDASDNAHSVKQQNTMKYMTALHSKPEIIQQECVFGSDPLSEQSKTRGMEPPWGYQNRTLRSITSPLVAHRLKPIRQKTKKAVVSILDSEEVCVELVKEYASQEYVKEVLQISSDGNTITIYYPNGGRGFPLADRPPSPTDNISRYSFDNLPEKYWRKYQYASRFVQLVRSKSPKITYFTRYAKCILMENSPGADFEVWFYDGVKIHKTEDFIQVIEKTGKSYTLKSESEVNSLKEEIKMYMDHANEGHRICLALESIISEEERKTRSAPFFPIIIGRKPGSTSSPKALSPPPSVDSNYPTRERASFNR
Sequence of STK11, construct: Full length (Q15831 whole entry, looked up): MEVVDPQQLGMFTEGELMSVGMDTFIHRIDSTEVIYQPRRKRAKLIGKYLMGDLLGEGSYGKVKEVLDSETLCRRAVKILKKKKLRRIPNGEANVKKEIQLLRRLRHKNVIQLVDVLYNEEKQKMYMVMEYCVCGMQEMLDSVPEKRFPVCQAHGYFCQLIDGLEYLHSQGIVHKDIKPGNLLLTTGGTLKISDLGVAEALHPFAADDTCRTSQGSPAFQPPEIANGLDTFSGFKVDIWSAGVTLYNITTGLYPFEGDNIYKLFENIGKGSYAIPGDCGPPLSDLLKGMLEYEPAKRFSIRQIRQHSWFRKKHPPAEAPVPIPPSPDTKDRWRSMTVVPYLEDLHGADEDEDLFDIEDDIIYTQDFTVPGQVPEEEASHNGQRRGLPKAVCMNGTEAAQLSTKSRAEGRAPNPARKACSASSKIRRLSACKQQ

STK11, construct: Full length (from UniProt Q15831)
relative phosphorylation
Settings | at +1 | at +2 | at +3 | at +4 | at -1 | at -2 | at -3 | at -4 | at -5
A fixed | 1.07 | 1.17 | 0.932 | 1.03 | 1.34 | 0.926 | 0.956 | 0.936 | 1.22
D fixed | 0.613 | 0.987 | 0.787 | 0.832 | 0.726 | 0.407 | 0.289 | 0.773 | 0.827
E fixed | 0.417 | 0.598 | 0.688 | 0.75 | 0.874 | 0.338 | 0.312 | 0.738 | 0.641
F fixed | 0.801 | 0.907 | 0.891 | 0.898 | 0.582 | 0.932 | 1.81 | 1.5 | 0.939
G fixed | 1.26 | 1.12 | 1.62 | 1.31 | 0.854 | 0.82 | 1.99 | 1.06 | 1.28
H fixed | 1.27 | 1.22 | 1.36 | 1.13 | 1.22 | 0.924 | 1.17 | 1.13 | 1.07
I fixed | 0.653 | 0.711 | 0.579 | 0.741 | 0.349 | 1.81 | 0.441 | 0.485 | 0.492
K fixed | 0.647 | 0.595 | 0.892 | 1.11 | 1.59 | 0.867 | 0.95 | 0.857 | 1.49
L fixed | 0.974 | 0.701 | 0.766 | 0.952 | 0.777 | 2.39 | 1.14 | 0.627 | 0.566
M fixed | 1.16 | 0.714 | 0.699 | 0.813 | 1.3 | 1.12 | 1.48 | 0.685 | 0.775
N fixed | 1.53 | 1.07 | 1.21 | 1.08 | 1.22 | 1.06 | 0.721 | 0.859 | 1.19
P fixed | 0.597 | 1.86 | 1.55 | 1.71 | 0.472 | 0.709 | 1.16 | 1.27 | 1.86
Q fixed | 1.57 | 0.922 | 1.14 | 1.17 | 1.62 | 0.836 | 0.728 | 0.799 | 0.901
R fixed | 1.34 | 0.692 | 1.02 | 0.953 | 1.84 | 1.19 | 0.765 | 0.828 | 1.27
V fixed | 0.654 | 0.882 | 0.7 | 0.724 | 0.495 | 1.06 | 0.385 | 0.498 | 0.532
W fixed | 1.36 | 1.66 | 1.15 | 1 | 0.848 | 0.712 | 1.29 | 2.99 | 1.17
Y fixed | 1.07 | 1.19 | 1.01 | 0.796 | 0.897 | 0.903 | 1.41 | 0.959 | 0.775
pThr fixed | 0.539 | 0.947 | 0.782 | 0.571 | 0.36 | 0.852 | 0.662 | 0.713 | 0.84
pTyr fixed | 0.43 | 0.743 | 0.736 | 0.581 | 0.559 | 0.553 | 0.746 | 0.632 | 0.897

PLK4, construct: aa1-836 (from UniProt O00444)
relative phosphorylation
Settings | at +1 | at +2 | at +3 | at +4 | at -1 | at -2 | at -3 | at -4 | at -5
A fixed | 0.459 | 0.471 | 0.813 | 1.24 | 0.953 | 0.708 | 1.03 | 1.24 | 1.26
D fixed | 0.141 | 0.195 | 0.641 | 0.629 | 0.452 | 2.77 | 0.913 | 1.08 | 0.912
E fixed | 0.135 | 0.148 | 0.874 | 0.705 | 0.493 | 1.26 | 0.791 | 0.991 | 0.918
F fixed | 3.31 | 2.2 | 1.18 | 0.861 | 0.621 | 0.829 | 0.569 | 0.691 | 0.873
G fixed | 0.61 | 0.24 | 0.821 | 1.4 | 2.08 | 1.35 | 1.25 | 1.42 | 1.43
H fixed | 0.675 | 1.6 | 1.03 | 1.09 | 0.988 | 1.15 | 0.848 | 1.14 | 1.21
I fixed | 1.67 | 1.39 | 1.4 | 1.01 | 0.347 | 0.395 | 0.478 | 0.625 | 0.582
K fixed | 0.413 | 0.219 | 0.704 | 1.05 | 2.14 | 0.712 | 1.07 | 1.04 | 1.28
L fixed | 1.62 | 1.35 | 1.33 | 1.01 | 0.858 | 0.398 | 0.715 | 0.748 | 0.771
M fixed | 2.44 | 0.906 | 1.2 | 1.05 | 1.33 | 0.676 | 0.867 | 0.893 | 0.728
N fixed | 0.409 | 0.294 | 0.58 | 0.829 | 1.09 | 2.41 | 1.97 | 1.54 | 1.28
P fixed | 0.168 | 0.141 | 0.381 | 1.55 | 0.331 | 0.486 | 1.98 | 1.25 | 0.926
Q fixed | 0.58 | 0.252 | 0.785 | 1.01 | 1.27 | 0.778 | 0.96 | 0.956 | 0.825
R fixed | 0.44 | 0.216 | 0.609 | 0.711 | 1.85 | 0.75 | 1.14 | 0.944 | 1.07
V fixed | 1.08 | 1.12 | 1.36 | 0.969 | 0.571 | 0.44 | 1.08 | 0.776 | 0.87
W fixed | 1.47 | 2.81 | 1.84 | 0.991 | 0.672 | 1 | 0.717 | 0.917 | 1.21
Y fixed | 1.38 | 3.44 | 1.44 | 0.889 | 0.955 | 0.881 | 0.627 | 0.746 | 0.848
pThr fixed | 0.54 | 0.446 | 0.572 | 0.592 | 0.571 | 0.796 | 1.08 | 0.931 | 0.889
pTyr fixed | 0.526 | 1.37 | 0.734 | 0.52 | 1.06 | 0.753 | 0.841 | 0.86 | 0.806
